Test [1] deals with T1, human HER3-Fc (recombinant HER3 extracellular domain Fc fusion, R&D systems) (human, UniProt P21860 20-643).
T1 construct: extracellular domain; Bought reagent (R&D Systems); Coated on plates at 50 ng per well; not shown: Fc part of the bought fusion (R&D Systems)
The test is described as follows: ELISA, HER3-Fc coated at 50 ng per well, GMB301 from 3.3 nM to 6.5 pM, HRP anti-human F(ab')2 detection. On the procedure: GMB301 was incubated for 1 hour at 37° C. in Maxisorp® plates (Nunc) coated wells with 50 ng human HER3-Fc (recombinant HER3 extracellular domain Fc fusion, R&D systems).
Bound GMB301 antibody were detected by a conjugated HRP-F(ab′)2 goat anti human IgG F(ab′)2 specific (Interchim). After two hours at 37° C. and three washes with PBS-Tween₂₀ 0.5%, TMB (3,3,5,5-tetramethylbenzidine, Sigma) was used as substrate for detecting HRP activity and 1M H₂SO₄ was added to stop the reaction and plate was read at 450 nm.
(In general: ELISA stands for enzyme-linked immunosorbent assay.)

The target in test [2] is T2, Recombinant human HER3 extracellular domain (ECD) (human, UniProt P21860 20-643).
T2 construct: extracellular domain; Bought from R&D Systems; also called recombinant human HER3 ECD; HER3 receptor
Briefly: ELISA, recombinant human HER3 ECD coated at 50 ng/well, antibody from 3 nM to 6.5 pM, four-parameter fit. As to the method: Nunc Maxisorp plates were coated with 50 ng/well recombinant human HER3 ECD for 16 hours at 4° C. and were blocked with 2% BSA in PBS. Anti-HER3 antibodies GMB301 and H4B-121-emb were serially diluted from 0.5 μg/ml to 1 ng/ml (3 nM to 6.5 pM) and incubated 1 hour at 37° C.

EC50 data for one molecule are collected here from US20180155433A1 (GAMAMABS PHARMA, published 2018).

As a reminder, the EC50 is the concentration giving half of the maximal effect.

T2 sequence (P21860 20-643): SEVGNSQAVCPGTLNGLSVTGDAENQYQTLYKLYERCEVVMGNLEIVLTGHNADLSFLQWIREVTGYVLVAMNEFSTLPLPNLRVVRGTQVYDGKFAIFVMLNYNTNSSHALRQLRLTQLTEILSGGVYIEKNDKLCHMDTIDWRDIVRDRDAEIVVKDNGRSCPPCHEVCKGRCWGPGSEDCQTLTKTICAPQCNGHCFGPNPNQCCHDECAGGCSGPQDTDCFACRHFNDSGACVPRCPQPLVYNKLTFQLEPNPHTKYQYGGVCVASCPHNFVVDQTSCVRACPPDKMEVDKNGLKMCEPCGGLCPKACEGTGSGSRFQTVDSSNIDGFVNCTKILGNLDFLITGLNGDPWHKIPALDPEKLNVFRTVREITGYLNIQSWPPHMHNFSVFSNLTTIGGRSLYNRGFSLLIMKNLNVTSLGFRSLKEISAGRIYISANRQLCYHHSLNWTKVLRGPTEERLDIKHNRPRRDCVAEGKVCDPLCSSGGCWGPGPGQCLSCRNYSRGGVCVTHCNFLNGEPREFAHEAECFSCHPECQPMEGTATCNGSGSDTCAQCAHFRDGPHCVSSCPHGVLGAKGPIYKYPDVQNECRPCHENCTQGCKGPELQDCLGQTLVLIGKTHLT
T1 sequence (P21860 20-643): as above

B1: GMB301 (chimeric low-fucose anti-human HER3 antibody) (antibody, human IgG1, kappa, V domains shown)
VH: EVKLVESGGGLVQPGGSLKLSCAASGFTFSSYTMSWVRQTPEKRLEWVAYISDGGGVTYYPDTIKGRFTISRDNAKNTLYLQMSSLKSEDTAMYYCARDRYGLFAYWGQGTLVTVSA
VL: DIVMTQSQKFMSTSVGDRVSITCKASQNVGIAVAWYQQKPGQSPKLLIYSASNRYTGVPDRFTGSGSGTDFTLTISNMQSEDLADYFCQQYSNYPYTFGGGTKLEIKR
modifications: low-fucose N-glycan (produced in YB2/0 cells)
notes: also called mAb GMB301; low-fucose chimerized antibody GMB301
Regarding B1, the EC50 in test [1] and in test [2] was 0.19 nM in each case.
